In general, stoichiometry N refers to the number of molecules, sites or subunits per partner or assembly.

The record followed here is article PMC2900196.

In assay [1] the target is Grass carp reovirus (GCRV) inner capsid shell protein VP3 (Grass carp reovirus (GCRV)). The experiment in a line: cryo-EM structure.
Assay [2] deals with Grass carp reovirus (GCRV) turret protein VP1 (Grass carp reovirus (GCRV)). Description: cryo-EM structure.

For “Grass carp reovirus (GCRV) inner capsid shell protein VP3 (natural protein)”, the stoichiometry N in assay [1] is 120.

In the case of “Grass carp reovirus (GCRV) turret protein VP1 (natural protein)”, the stoichiometry N in assay [2] came out at 5.
